Source: patent US7094891 (CENTER FOR TRANSLATION RESEARCH IN CANCER, dated 2006)

Target: T1, Human Replication Protein A 32 (RPA32) (human, UniProt P15927 1-270, limits assumed)
T1 construct: Used in the yeast two-hybrid system; also called Replication Protein A 32KD subunit; 32-kDa middle subunit of RPA
Assay: yeast two-hybrid system (method named in paragraph 31)

T1 sequence (P15927 whole entry): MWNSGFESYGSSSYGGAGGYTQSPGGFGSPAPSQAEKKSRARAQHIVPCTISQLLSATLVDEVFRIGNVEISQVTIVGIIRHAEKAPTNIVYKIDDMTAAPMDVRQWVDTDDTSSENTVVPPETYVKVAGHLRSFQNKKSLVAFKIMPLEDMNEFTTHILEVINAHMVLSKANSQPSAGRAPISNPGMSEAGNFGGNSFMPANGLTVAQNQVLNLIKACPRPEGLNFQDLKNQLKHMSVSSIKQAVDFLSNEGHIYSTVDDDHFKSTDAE

binding result: binds
B1: replication protein A binding transcriptional activator 1 (RBT1) (other)
chain: MEGGLKRKHSDLEEEEERWEWSPAGLQSYQQALLRISLDKVQRSLGPRAPSLRRHVLIHNTLQQLQAALRLAPAPALPPEPLFLGEEDFSLSATIGSILRELDTSMDGTEPPQNPVTPLGLQNEVPPQPDPVFLEALSSRYLGDSGLDDFFLDIDTSAVEKEPARAPPEPPHNLFCAPGSWEWNELDHIMEIILGS
notes: Open reading frame of 196 amino acids
